Reference: patent publication US20040116336A1, “Peptide derivatives” (priority 2002, published 2004)
Starred links: 1 amine or outer side, 2 acyl side, 3 side chain; linkers in the order of their positions; H or OH if unused. Non-standard residues stand in square brackets, D forms with d. No end group written: not given here. *: point of attachment. Phe(4-Cl) = N[C@@H](Cc1ccc(Cl)cc1)C(=O)O; Adipoyl = O=C(CCCCC(=O)[*:2])[*:1]; Cha = N[C@@H](CC1CCCCC1)C(=O)O; pGlu = O=C1CC[C@@H](C(=O)O)N1; Morpholide = C1CN(*)CCO1; Nle = CCCC[C@H](N)C(=O)O; Dap = NC[C@H](N)C(=O)O; Hexanoyl = CCCCCC(=O)*

B1: Arg-Pro-Arg-Leu-Phe-His-Lys-Gly-Pro-Cha-Pro-Phe(Cl) (peptide)
chain: RPRLFHKGP[Cha]PX
modifications: not fully specified (residue 12); printed as Arg-Pro-Arg-Leu-Phe-His-Lys-Gly-Pro-Cha-Pro-Phe(Cl)
B2: Arg-Arg-Gln-Arg-Pro-Arg-Leu-Ser-His-Lys-Gly-Pro-Cha-Pro-Phe(Cl) (peptide)
chain: RRQRPRLSHKGP[Cha]PX
modifications: not fully specified (residue 15); printed as Arg-Arg-Gln-Arg-Pro-Arg-Leu-Ser-His-Lys-Gly-Pro-Cha-Pro-Phe(Cl)
B3: Arg-Arg-Gln-Arg-Pro-Arg-Leu-Ser-Ala-Arg-Gly-Pro-Cha (peptide)
chain: RRQRPRLSARGPX
modifications: C-terminal Cha; peptide derivative; Xaa means Cha.
B4: Arg-Pro-Arg-Leu-Ser-Ala-Arg-Gly-Pro-Cha-Pro-Phe(Cl) (peptide)
chain: RPRLSARGP[Cha]PX
modifications: not fully specified (residue 12); printed as Arg-Pro-Arg-Leu-Ser-Ala-Arg-Gly-Pro-Cha-Pro-Phe(Cl)
B5: Arg-Pro-Arg-Leu-Phe-His-Lys-Gly-Pro-Cha-Phe(Cl) (peptide)
chain: RPRLFHKGP[Cha]X
modifications: not fully specified (residue 11); printed as Arg-Pro-Arg-Leu-Phe-His-Lys-Gly-Pro-Cha-Phe(Cl)
B6: Arg-Pro-Arg-Leu-Ser-His-Lys-Gly-Pro-Met-Pro-Nal(2) (peptide)
chain: RPRLSHKGPMPX
modifications: C-terminal Nal(2); peptide derivative; Xaa means Nal(2)
B7: pGlu-Arg-Pro-Arg-Leu-Ser-Ala-Lys-Gly-Pro-Met-Pro-Phe (peptide)
chain: XRPRLSAKGPMPF
modifications: N-terminal pGlu; peptide derivative; Xaa means pGlu
B8: pGlu-Arg-Pro-Arg-Leu-Ser-Leu-Lys-Gly-Pro-Met-Pro-Phe (peptide)
chain: XRPRLSLKGPMPF
modifications: N-terminal pGlu; peptide derivative; Xaa means pGlu
B9: Arg-Pro-Arg-Leu-Ser-Ala-Arg-Gly-Pro-Cha-Pro-Phe (peptide)
chain: RPRLSARGP[Cha]PF
B10: Arg-Pro-Arg-Leu-Ser-His-Lys-Gly-Pro-Met-Nal(2) (peptide)
chain: RPRLSHKGPMX
modifications: Nal(2) non-natural residue; peptide derivative; Xaa means Nal(2)
B11: Arg-Pro-Arg-Leu-Ser-His-Lys-Gly-Pro-Met-Pro-Cha (peptide)
chain: RPRLSHKGPMPX
modifications: C-terminal Cha; peptide derivative; Xaa means Cha
B12: Arg-Pro-Ala-Leu-Ser-His-Lys-Gly-Pro-Cha-Pro-Phe(Cl) (peptide)
chain: RPALSHKGP[Cha]PX
modifications: not fully specified (residue 12); printed as Arg-Pro-Ala-Leu-Ser-His-Lys-Gly-Pro-Cha-Pro-Phe(Cl)
B13: Arg-Pro-Arg-Leu-Phe-Ala-Arg-Gly-Pro-Cha-Pro-Phe(Cl) (peptide)
chain: RPRLFARGP[Cha]PX
modifications: not fully specified (residue 12); printed as Arg-Pro-Arg-Leu-Phe-Ala-Arg-Gly-Pro-Cha-Pro-Phe(Cl)
B14: pGlu-Arg-Pro-Arg-Leu-Ser-His-Leu-Gly-Pro-Met-Pro-Phe (peptide)
chain: XRPRLSHLGPMPF
modifications: N-terminal pGlu; peptide derivative; Xaa means pGlu
B15: pGlu-Arg-Pro-Arg-Leu-Ser-Arg-Lys-Gly-Pro-Met-Pro-Phe (peptide)
chain: XRPRLSRKGPMPF
modifications: N-terminal pGlu; peptide derivative; Xaa means pGlu
B16: Arg-Arg-Lys(Arg-Arg)-Arg-Pro-Arg-Leu-Ser-His-Lys-Gly-Pro-Met-Pro-Phe (peptide)
chain: RRXRPRLSHKGPMPF
modifications: N-terminal branched Arg-Arg-Lys(Arg-Arg); peptide derivative; Xaa means Lys(Arg-Arg)
B17: pGlu-Arg-Pro-Arg-Leu-Ser-His-Lys-Gly-Pro-Met-Nal(2) (peptide)
chain: XRPRLSHKGPMX
modifications: N-terminal pGlu; C-terminal Nal(2); peptide derivative; Xaa on the 1st position means pGlu; Xaa on the 12th position means Nal(2)
B18: pGlu-Arg-Pro-Arg-Leu-Phe-His-Lys-Gly-Pro-Met-Pro-Phe (peptide)
chain: XRPRLFHKGPMPF
modifications: N-terminal pGlu; peptide derivative; Xaa means pGlu
B19: Arg-Pro-Arg-Leu-Ser-His-Ala-Gly-Pro-Cha-Pro-Phe(Cl) (peptide)
chain: RPRLSHAGP[Cha]PX
modifications: not fully specified (residue 12); printed as Arg-Pro-Arg-Leu-Ser-His-Ala-Gly-Pro-Cha-Pro-Phe(Cl)
B20: Arg-Pro-Arg-Leu-Ser-Dap(Adi)-Arg-Gly-Pro-Cha-Pro-Phe(Cl) (peptide)
peptide: RPRLS[Dap](Adipoyl)RGP[Cha]P[Phe(4-Cl)]
B21: Arg-Pro-Arg-Ala-Ser-His-Lys-Gly-Pro-Cha-Pro-Phe(Cl) (peptide)
chain: RPRASHKGP[Cha]PX
modifications: not fully specified (residue 12); printed as Arg-Pro-Arg-Ala-Ser-His-Lys-Gly-Pro-Cha-Pro-Phe(Cl)
B22: Arg-Pro-Arg-Leu-Ser-His-Lys-Gly-Pro-Met-Cha (peptide)
chain: RPRLSHKGPMX
modifications: C-terminal Cha; peptide derivative; Xaa means Cha
B23: Arg-Arg-Gln-Arg-Pro-Arg-Leu-Ser-Ala-Arg-Gly-Mor (peptide)
chain: RRQRPRLSARG-Morpholide
B24: Arg-Pro-Arg-Leu-Phe-His-Lys-Gly-Pro-Cha-Pro-Phe (peptide)
chain: RPRLFHKGP[Cha]PF
B25: pGlu-Arg-Pro-Arg-Leu-Ser-Arg-Arg-Gly-Pro-Met-Pro-Phe (peptide)
chain: [pGlu]RPRLSRRGPMPF
B26: pGlu-Arg-Pro-Arg-Leu-Phe-Arg-Arg-Gly-Pro-Met-Pro-Phe (peptide)
chain: [pGlu]RPRLFRRGPMPF
B27: pGlu-Arg-Pro-Arg-Leu-Ser-His-Lys-Gly-Pro-Met-Cha (peptide)
chain: XRPRLSHKGPMX
modifications: N-terminal pGlu; C-terminal Cha; peptide derivative; Xaa on the 1st position means pGlu; Xaa on the 12th position means Cha
B28: Arg-Pro-Arg-Leu-Ser-Dap(C6)-Arg-Gly-Pro-Cha-Pro-Phe(Cl) (peptide)
peptide: RPRLS[Dap](Hexanoyl)RGP[Cha]P[Phe(4-Cl)]
B29: pGlu-Arg-Pro-Arg-Leu-Ser-His-Phe-Gly-Pro-Met-Pro-Phe (peptide)
chain: XRPRLSHFGPMPF
modifications: N-terminal pGlu; peptide derivative; Xaa means pGlu
B30: Arg-Arg-Gln-Arg-Pro-Arg-Leu-Ser-His-Lys-Gly-Pro-Met(O) (peptide)
chain: RRQRPRLSHKGPX
modifications: oxidized C-terminal residue; peptide; Xaa means Met(O)
B31: pGlu-Arg-Pro-Arg-Leu-Ser-His-Arg-Gly-Pro-Met-Pro-Phe (peptide)
chain: XRPRLSHRGPMPF
modifications: N-terminal pGlu; peptide derivative; Xaa means pGlu
B32: Arg-Arg-Gln-Arg-Pro-Arg-Leu-Ser-His-Lys-Gly-Pro-Nle-Pro-Tyr (peptide)
chain: RRQRPRLSHKGP[Nle]PY
B33: Arg-Pro-Arg-Leu-Ser-Ala-Arg-Gly-Pro-Cha-Phe(Cl) (peptide)
chain: RPRLSARGP[Cha]X
modifications: not fully specified (residue 11); printed as Arg-Pro-Arg-Leu-Ser-Ala-Arg-Gly-Pro-Cha-Phe(Cl)
B34: Arg-Arg-Gln-Arg-Pro-Arg-Leu-Ser-Ala-Arg-Gly-NMe2 (peptide)
chain: RRQRPRLSARG-NMe2
B35: pGlu-Arg-Pro-Arg-Leu-Ser-His-Lys-Gly-Pro-Cha-Pro-Phe (peptide)
chain: XRPRLSHKGPXPF
modifications: N-terminal pGlu; Cha non-natural residue; peptide derivative; Xaa on the 1st position means pGlu.; Xaa on the 11th position means Cha.
B36: pGlu-Arg-Pro-Arg-Leu-Ser-Phe-Lys-Gly-Pro-Met-Pro-Phe (peptide)
chain: XRPRLSFKGPMPF
modifications: N-terminal pGlu; peptide derivative; Xaa means pGlu

How the values were obtained:
[1] = biological target: APJ (orphan G protein-coupled receptor protein); assay: cell-based or functional assay
[2] = biological target: APJ (orphan G protein-coupled receptor protein); assay: radioligand competition, compound of Ref. Ex. 2 as labelled ligand, CHO-A10 membrane fraction
[3] = biological target: APJ (orphan G protein-coupled receptor protein); assay: radioligand competition, 125I-labelled compound of Ref. Ex. 1 (100 pM), CHO-A10 membrane fraction

Sequence of APJ (orphan G protein-coupled receptor protein) (P35414 whole entry): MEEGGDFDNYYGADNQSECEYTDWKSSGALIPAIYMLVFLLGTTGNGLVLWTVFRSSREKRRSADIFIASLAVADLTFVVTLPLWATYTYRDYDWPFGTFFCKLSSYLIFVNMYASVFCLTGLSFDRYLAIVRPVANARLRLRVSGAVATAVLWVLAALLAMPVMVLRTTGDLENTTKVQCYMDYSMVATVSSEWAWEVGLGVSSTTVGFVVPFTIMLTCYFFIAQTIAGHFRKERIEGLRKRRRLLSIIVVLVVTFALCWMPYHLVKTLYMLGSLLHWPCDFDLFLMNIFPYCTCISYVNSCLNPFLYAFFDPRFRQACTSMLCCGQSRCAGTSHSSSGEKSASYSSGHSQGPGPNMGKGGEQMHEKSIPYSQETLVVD

| Binder | EC50, inhibition of forskolin-stimulated cAMP production (CHO-A10 clone 6 cells) [1] | IC50 [2] | IC50 [3] |
| --- | --- | --- | --- |
| B1 | 1 nM | 0.29 nM | 2.7 nM |
| B2 | 0.53 nM | 0.33 nM | 0.47 nM |
| B3 | 0.55 nM | 0.046 nM | 1.4 nM |
| B4 | 0.51 nM | 0.13 nM | 1.2 nM |
| B5 | 0.43 nM | 0.54 nM |  |
| B6 | 0.1 nM | 0.35 nM |  |
| B7 | 0.22 nM | 0.21 nM |  |
| B8 | 0.16 nM | 0.59 nM |  |
| B9 | 0.59 nM | 0.084 nM | 2.2 nM |
| B10 | 0.37 nM | 0.61 nM |  |
| B11 | 0.71 nM | 3.5 nM |  |
| B12 | 0.41 nM | 0.15 nM | 0.41 nM |
| B13 | 1.2 nM | 0.38 nM | 2.3 nM |
| B14 | 0.16 nM | 3.6 nM |  |
| B15 | 0.081 nM | 0.23 nM |  |
| B16 | 0.57 nM | 0.84 nM | 2.9 nM |
| B17 | 0.52 nM | 1.4 nM |  |
| B18 | 0.22 nM | 0.99 nM |  |

| Binder | EC50, inhibition of forskolin-stimulated cAMP production (CHO-A10 clone 6 cells) [1] | IC50 [2] | IC50 [3] |
| --- | --- | --- | --- |
| B19 | 0.58 nM | 0.22 nM | 0.58 nM |
| B20 | 0.42 nM | 0.13 nM | 0.42 nM |
| B21 | 0.52 nM | 0.17 nM | 0.52 nM |
| B22 | 0.22 nM | 0.51 nM |  |
| B23 | 1.2 nM | 0.26 nM |  |
| B24 | 0.46 nM | 0.13 nM | 8 nM |
| B25 | 0.069 nM | 0.73 nM |  |
| B26 | 0.15 nM | 0.81 nM |  |
| B27 | 0.3 nM | 1.3 nM |  |
| B28 | 1.1 nM | 0.45 nM | 1.1 nM |
| B29 | 0.3 nM | 2.6 nM |  |
| B30 | 0.48 nM | 0.62 nM |  |
| B31 | 0.2 nM | 0.4 nM |  |
| B32 | 0.28 nM | 0.027 nM | 2.7 nM |
| B33 | 0.65 nM | 0.1 nM | 1 nM |
| B34 | 0.49 nM | 0.16 nM |  |
| B35 | 0.35 nM | 0.16 nM | 13 nM |
| B36 | 0.24 nM | 0.95 nM |  |
